Data from patent US20220324953A1 (JIANGSU HENGRUI MEDICINE, published 2022).

Assays:
[1] = target: T1, Cynomolgus CTGF-Fc (fusion protein of cynomolgus CTGF coding region with Fc) (cynomolgus); assay: ELISA, cyno-CTGF-Fc captured by anti-mFc
T1 construct: also called cyno-CTGF-mFc protein; cyno-CTGF protein with Fc tag
Protocol: The binding activity of anti-monkey CTGF antibody to monkey CTGF protein was tested by ELISA assay. A 96-well microtiter plate was directly coated with anti-mFc protein, and then the cyno-CTGF protein with Fc tag was bound to the plate, and then the antibody was added. The signal strength upon the addition of the antibody was used to determine the binding activity of the antibody to cyno-CTGF. The specific experimental procedures were as follows:
The anti-mFc Protein (Sigma, Cat No. M4280) was diluted with PBS, pH 7.4 (Shanghai Yuanpei, Cat No. B320) buffer to a concentration of 2 μg/ml, which was added into the 96-well microtiter plate (Corning, Cat No. CLS3590-100EA) at 50 μl/well, and incubated in an incubator at 37° C. for 2 hours. The liquid was removed, 250 μl/well blocking solution (5% skim milk (BD skim milk, Cat No.232100) diluted in PBS) was added, and incubated in an incubator at 37° C. for 3 hours or at 4° C. overnight (16-18 hours) for blocking. After the blocking was finished, the blocking solution was removed, the plate was washed for 3 times with PBST buffer (PBS containing 0.1% Tween-20, pH 7.4), 50 μl of 1 μg/ml cyno-CTGF-mFc protein was added into each well, incubated in an incubator at 37° C. for 1 hour, and then the plate was washed for 3 times with PBST buffer (PBS containing 0.1% Tween-20, pH 7.4). 50 μl/well of various concentrations of each of the test antibodies (antibodies purified from hybridoma or humanized antibodies) diluted with sample dilution solution were added, and incubated in an incubator at 37° C. for 1 hours. After the incubation was finished, the plate was washed for 3 times with PBST, 50 μl/well of HRP-labeled goat anti-mouse secondary antibody (Jackson Immuno Research, Cat No. 115-035-003) or goat anti-human secondary antibody (Jackson Immuno Research, Cat No. 109-035-003) diluted with sample dilution solution was added, and incubated at 37° C. for 1 hour. The plate was washed for 5 times with PBST, 50 μl/well of TMB chromogenic substrate (KPL, Cat No. 52-00-03) was added, incubated at room temperature for 5-10 min, and 50 μl/well of 1 M H₂SO₄ was added to stop the reaction. The absorbance value was read by a microplate reader (Molecular Devices, VERSA max) at a wavelength of 450 nm, and the data was analyzed with GraphPad Prism 5. The binding of CTGF antibody to cyno CTGF protein was calculated as EC50 value.

[2] = target: T2, human CTGF protein (R&D, Cat No. 9190-CC) (human, UniProt P29279 27-349); assay: ELISA, plate coated with CTGF (R&D 9190-CC)
T2 construct: Bought protein; also called CTGF recombinant protein; CTGF (R&D)
T2 sequence: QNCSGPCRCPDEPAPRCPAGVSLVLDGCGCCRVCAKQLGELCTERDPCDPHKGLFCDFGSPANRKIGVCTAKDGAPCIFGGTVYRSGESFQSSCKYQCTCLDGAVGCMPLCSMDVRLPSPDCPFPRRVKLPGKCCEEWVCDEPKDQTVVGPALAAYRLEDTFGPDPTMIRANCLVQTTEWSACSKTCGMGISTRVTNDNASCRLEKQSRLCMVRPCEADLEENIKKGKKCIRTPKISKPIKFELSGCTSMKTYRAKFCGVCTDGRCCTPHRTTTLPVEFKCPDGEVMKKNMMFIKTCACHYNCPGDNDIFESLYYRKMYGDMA
Protocol: The binding activity of anti-human CTGF antibody to human CTGF protein was tested by ELISA assay and Biacore. A 96-well microtiter plate was directly coated with the CTGF recombinant protein. The signal strength upon the addition of the antibody was used to determine the binding activity of the antibody to CTGF. The specific experimental procedures were as follows:
The CTGF protein (R&D, Cat No. 9190-CC) was diluted with PBS, pH 7.4 (Shanghai Yuanpei, Cat No. B320) buffer to a concentration of 0.2 μg/ml, 50 μl/well of which was added into the 96-well microtiter plate (Corning, Cat No. CLS3590-100EA), and incubated in an incubator at 37° C. for 2 hours or at 4° C. overnight (16-18 hours). The liquid was removed, 250 μl/ well blocking solution (5% skim milk (BD skim milk, Cat No.232100) diluted in PBS) was added, and incubated in an incubator at 37° C. for 3 hours or at 4° C. overnight (16-18 hours) for blocking. After the blocking was finished, the blocking solution was removed, the plate was washed for 5 times with PBST buffer (PBS containing 0.1% Tween-20, pH 7.4), 50 μl/well of various concentrations of each of the test antibodies (antibodies purified from hybridoma or humanized antibodies) diluted with sample dilution solution were added, and incubated in an incubator at 37° C. for 1 hours. After the incubation was finished, the plate was washed for 3 times with PBST, 50 μl/well of HRP-labeled goat anti-mouse secondary antibody (Jackson Immuno Research, Cat No. 115-035-003) or goat anti-human secondary antibody (Jackson Immuno Research, Cat No. 109-035-003) diluted with sample dilution solution was added, and incubated at 37° C. for 1 hour. The plate was washed for 3 times with PBST, 50 μl/well of TMB chromogenic substrate (KPL, Cat No. 52-00-03) was added, incubated at room temperature for 5-10min, and 50 μl/well of 1 M H₂SO₄ was added to stop the reaction. The absorbance value was read by a microplate reader (Molecular Devices, VERSA max) at a wavelength of 450 nm, and the data was analyzed with GraphPad Prism 5. The binding of CTGF antibody to human CTGF protein was calculated as EC50 value.

T1 sequence (chain, as listed by the source limits assumed): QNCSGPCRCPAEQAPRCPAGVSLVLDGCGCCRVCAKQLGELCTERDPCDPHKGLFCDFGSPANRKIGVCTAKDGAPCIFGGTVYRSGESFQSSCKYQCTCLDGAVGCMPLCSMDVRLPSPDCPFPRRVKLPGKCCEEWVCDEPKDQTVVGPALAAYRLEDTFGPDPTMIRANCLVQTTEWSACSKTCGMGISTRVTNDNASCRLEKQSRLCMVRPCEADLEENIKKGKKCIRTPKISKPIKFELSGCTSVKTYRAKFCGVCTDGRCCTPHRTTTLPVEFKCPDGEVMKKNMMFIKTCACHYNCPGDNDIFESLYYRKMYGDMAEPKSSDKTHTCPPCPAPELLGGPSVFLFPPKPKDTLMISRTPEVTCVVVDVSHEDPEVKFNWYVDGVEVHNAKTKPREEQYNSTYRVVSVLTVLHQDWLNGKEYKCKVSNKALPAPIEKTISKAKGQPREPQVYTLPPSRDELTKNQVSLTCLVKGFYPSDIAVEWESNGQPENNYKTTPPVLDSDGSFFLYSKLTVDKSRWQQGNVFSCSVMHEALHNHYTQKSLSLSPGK

EC50 [1]: 0.029 nM
EC50 [2]: 0.044 nM
B1: Hu164-57wl (antibody, human IgG1, lambda, V domains shown)
VH: EVTLKESGPVLVKPTETLTLTCTVSGFSLSTFGVHWIRQPPGKALEWLAVIWRRGGTDYNAAFMSRLTISKDTSKSQVVLTMTNMDPVDTATYYCARDGGFDYWGQGTTVTVSS
VL: ETVVTQEPSLTVSPGGTVTLTCRSSIGAVTTSNYANWVQQKPGQAFRGLIGGTSNRAPWTPARFSGSLLGGKAALTLSGVQPEDEAEYYCALWYSTHYVFGGGTKLTVLG
